According to patent US8114974B2, “Engineered microorganisms with enhanced fermentation activity” (Verdezyne, Inc., priority 2009, dated 2012):
Several values for one entry are separate records, joined by “and”; a condition that tells them apart may be missing. Equal entries are not always repeated.

Experiments:
[1] = tested on: C5 strain; test: In vivo evaluation of xylose isomerase constructs in C5 strain, fermentation on xylose; type: cell-based, Saccharomyces cerevisiae; settings: final sample at 372 hours
Text: The engineered strain was designed to include the following genetic modifications: the native Pho13 gene (alkaline phosphatase specific for p-nitrophenyl phosphate) was disrupted by inserting a construct containing the native TLK1 gene (Transketolase-1); the native aldose reductase gene (Gre3) was disrupted by inserting a construct containing the native high-affinity glucose transporter-7 gene (HXT7); the native glucose-repressible alcohol dehydrogenase II gene (adh2) was disrupted by inserting a construct containing the native xylulokinase gene (XYLK); and the native orotidine-5′ phosphate decarboxylase gene (ura3) was disrupted by inserting a construct containing the native transaldolase 1 gene (TAL1). The resulting strain had the following genotype: pho13::TKL1, gre3::HXT7, adh2::XYLK, ura3::TAL1.
The C5 strain was transformed using standard protocols with either p426GPD (as a control) or the chimeric variants XI-R, XI-Rp5, XI-Rp10, or XI-Rp15. The transformed cells were grown on SC-glucose minus uracil initially and then passaged onto SC-xylose minus uracil. Cultures of each of the above constructs were made in SC-xylose minus uracil—and grown for one week. The cultures were grown aerobically at 30° C. with 250 rpm agitation, 1 vvm sparge of process air, 21% O2. The pH was controlled at about 5.0 with 1N NaOH. […] At 24 hours elapsed fermentation time the fermentation was switched to anaerobic conditions.
Oxygen was purged with 100% N2 sparge at 1 vvm until percent O2 was below 1%. Aeration was then set at 0.25 vvm 100% N2.
The final sample also measured biomass by dry cell weight.

[2] = tested on: xylose isomerase; test: In vitro xylose isomerase activity assay (sorbitol dehydrogenase/NADH coupled, A340; Km, specific activity, Ki for xylitol); type: biochemical, Saccharomyces cerevisiae
Procedure: About 20 μg of soluble whole cell extract was incubated in the presence of 100 mM Tris, pH 7.5, 10 mM MgCl2, 0.15 mM NADH (Sigma, St. Louis, Mo.), and about 2 U sorbitol dehydrogenase (Roche) at about 30° C. […] A Beckman DU-800 was utilized with an Enzyme Mechanism software package (Beckman Coulter, Inc.), and the change in the A340 was monitored for 2-3 minutes.
Approximately 20 μg of soluble whole cell extract from each transformed cell line, prepared using Y-PER plus reagent as described above, was incubated in a solution containing about 100 mM Tris, pH 7.5, 10 mM MgCl ? 2, 0.15 mM NADH (Sigma, St. Louis, Mo.), and 2 U Sorbitol Dehydrogenase (SDH) (Roche, Indianapolis, Ind.) at about 30° C. […] A Beckman DU-800 spectrophotometer was utilized with an Enzyme Mechanism software package (Beckman Coulter, Inc, Brea, Calif.), and the change in the A340 was monitored for 2-3 minutes.
Approximately 20 μg of soluble whole cell extract from each transformed cell line was prepared using Y-PER plus reagent as described above was incubated in a solution containing about 100 mM Tris, pH 7.5, 10 mM MgCl2, 0.15 mM NADH (Sigma, St. Louis, Mo.), and 2 U sorbitol dehydrogenase (SDH) (Roche, Indianapolis, Ind.) at about 30° C. […] A Beckman DU-800 spectrophotometer was utilized with an Enzyme Mechanism software package (Beckman Coulter, Inc, Brea, Calif.), and the change in the A340 was monitored for 2-3 minutes.
Approximately 20 μg of soluble whole cell extract from each transformed cell line was prepared using Y-PER plus reagent as described above was incubated in a solution containing about 100 mM Tris, pH 7.5, 10 mM MgCl ? .2, 0.15 mM NADH (Sigma, St. Louis, Mo.), and 2 U Sorbitol Dehydrogenase (SDH) (Roche, Indianapolis, Ind.) at about 30° C. […] A Beckman DU-800 spectrophotometer was utilized with an Enzyme Mechanism software package (Beckman Coulter, Inc, Brea, Calif.), and the change in the A340 was monitored for 2-3 minutes.
The Clostridiales enzyme was further characterized at 1974 μg to confirm the presence of activity.

[3] = tested on: xylose isomerase; test: Heterologous xylose isomerase expression in yeast (active yes/no); type: cell-based, Saccharomyces cerevisiae; settings: xylose isomerase of the donor organism expressed in engineered yeast (S. cerevisiae)

B1: Ruminococcus flavefaciens: native xylose isomerase from Ruminococcus flavefaciens strain 17 (SEQ ID NO: 31) (protein, listed as Ruminococcus flavefaciens)
chain: MEFFSNIGKIQYQGPKSTDPLSFKYYNPEEVINGKTMREHLKFALSWWHTMGGDGTDMFGCGTTDKTWGQSDPAARAKAKVDAAFEIMDKLSIDYYCFHDRDLSPEYGSLKATNDQLDIVTDYIKEKQGDKFKCLWGTAKCFDHPRFMHGAGTSPSADVFAFSAAQIKKALESTVKLGGNGYVFWGGREGYETLLNTNMGLELDNMARLMKMAVEYGRSIGFKGDFYIEPKPKEPTKHQYDFDTATVLGFLRKYGLDKDFKMNIEANHATLAQHTFQHELRVARDNGVFGSIDANQGDVLLGWDTDQFPTNIYDTTMCMYEVIKAGGFTNGGLNFDAKARRGSFTPEDIFYSYIAGMDAFALGFRAALKLIEDGRIDKFVADRYASWNTGIGADIIAGKADFASLEKYALEKGEVTASLSSGRQEMLESIVNNVLFSL
Glucose [1]: 0 g/L
Dry Cell Wt ([1]; listed as XI-R): 2.20 g/L and 2.03 g/L
Ethanol ([1]; listed as XI-R): 15.65 g/L and 15.5 g/L
Xylose ([1]; listed as XI-R): 3.14 g/L and 3.85 g/L
Specific Activity ([2]; soluble whole cell extract, xylose 40-500 mM, 30° C., pH 7.5): 1.718 µmol/min/mg
Specific Activity ([2]; total soluble crude extracts from S. cerevisiae, xylose concentrations between 40 and 500 nM (so in the source), Michaelis Mentin plots): 0.9605 µmol/min/mg
Active? (yes/no) [3]: Yes
